From publication PMC9065997, “Mitochondria-associated myosin 19 processively transports mitochondria on actin tracks in living cells” (The Journal of Biological Chemistry, 2022)

Target: the molecule itself
Experiment: single-molecule photobleaching steps and spot intensity distribution (TIRF microscopy, HILO illumination); Halo-HM19 constructs expressed in living HeLa cells, stained with R110 Direct HaloTag ligand, spots in filopodia, 37 °C

B1: Halo-HM19^IQ3LZ (tail-truncated human myosin 19, residues 1-834, forced dimer with GCN4 leucine zipper, N-terminal HaloTag) (other)
chain: MLQQVNGHNPGSDGQAREYLREDLQEFLGGEVLLYKLDDLTRVNPVTLETVLRCLQARYMADTFYTNAGCTLVALNPFKPVPQLYSPELMREYHAAPQPQKLKPHVFTVGEQTYRNVKSLIEPVNQSIVVSGESGAGKTWTSRCLMKFYAVVATSPASWESHKIAERIEQRILNSNPVMEAFGNACTLRNNNSSRFGKFIQLQLNRAQQMTGAAVQTYLLEKTRVACQASSERNFHIFYQICKGASEDERLQWHLPEGAAFSWLPNPERSLEEDCFEVTREAMLHLGIDTPTQNNIFKVLAGLLHLGNIQFAASEDEAQPCQPMDDAKYSVRTAASLLGLPEDVLLEMVQIRTIRAGRQQQVFRKPCARAECDTRRDCLAKLIYARLFDWLVSVINSSICADTDSWTTFIGLLDVYGFESFPDNSLEQLCINYANEKLQQHFVAHYLRAQQEEYAVEGLEWSFINYQDNQPCLDLIEGSPISICSLINEECRLNRPSSAAQLQTRIETALAGSPCLGHNKLSREPSFIVVHYAGPVRYHTAGLVEKNKDPIPPELTRLLQQSQDPLLMGLFPTNPKEKTQEEPPGQSRAPVLTVVSKFKASLEQLLQVLHSTTPHYIRCIKPNSQGQAQTFLQEEVLSQLEACGLVETIHISAAGFPIRVSHRNFVERYKLLRRLHPCTSSGPDSPYPAKGLPEWCPHSEEATLEPLIQDILHTLPVLTQAAAITGDSAEAMPAPMHCGRTKVFMTDSMLELLECGRARVLEQCARCIQGGWRRHRHREQERQWRAVMLIQAAIRSWLTRKHIQRLHAAATVIKRAWQKWRIRMACLAAKELDGGTTHSYTSMKQLEDKVEELLSKNYHLENEVARLKKLVGERTSMKQLEDKVEELLSKNYHLENEVARLKKLVGERTSGSEL
modifications: rhodamine 110 (R110 Direct HaloTag ligand) on the HaloTag
notes: myosin 19 (Myo19, HM19), human, residues 1-834 (motor domain and three IQ motifs; 835 to 970 removed), cDNA from GeneCopoeia NM_001163735.1; also called R110-Halo-HM19^IQ3LZ; R110-Halo-HM19^IQ3-LZ; source: HeLa cells, transfected, in living cells; not shown: HaloTag, N-terminal, kept
- stoichiometry N: 2
